Assay results taken from US20230212319A1, “NOVEL ANTIGEN BINDING DOMAINS AND SYNTHETIC ANTIGEN RECEPTORS INCORPORATING THE SAME” (University of Southern California, priority 2020, published 2023).

B1: 22244 (protein)
chain: MALPVTALLLPLALLLHAARPDIQMTQSPSSLSASVGDRVTITCKASDHINNWLAWYQQKPGQAPKLLIYGATTLETGVPSRFSGSGSGTDYTLTISSLQPEDFATYYCQQSWNTPWTFGQGTKLEIKRLEDLKNVFPPEVAVFEPSEAEISHTQKATLVCLATGFYPDHVELSWWVNGKEVHSGVCTDPQPLKEQPALNDSRYCLSSRLRVSATFWQNPRNHFRCQVQFYGLSENDEWTQDRAKPVTQIVSAEAWGRADCGFTSESYQQGVLSATILYEILLGKATLYAVLVSALVLMAMVKRKDSRGRAKRSGSGATNFSLLKQAGDVEENPGPTSATMDWIWRILFLVGAATGAHSGPSACPYSNPSLCSGSGGGGSGGGGSGGGGSFEQVQLQQPGAELVKPGASVKMSCKASGYAFSSYWINWMKQKPGQGLEWIGQIYPGDGDTNYNGKFKGRATLTADTSSSTAYMQLSSLTSEDSAVYFCARSITTVVGCAMDYWGQGTSVTVSSTRIQNPDPAVYQLRDSKSSDKSVCLFTDFDSQTNVSQSKDSDVYITDKCVLDMRSMDFKSNSAVAWSNKSDFACANAFNNSIIPEDTFFPSPESSCDVKLVEKSFETDTNLNFQNLSVIGFRILLLKVAGFNLLMTLRLWSSRAKRSGSGVKQTLNFDLLKLAGDVESNPGPSRGHMTEYKPTVRLATRDDVPRAVRTLAAAFADYPATRHTVDPDRHIERVTELQELFLTRVGLDIGKVWVADDGAAVAVWTTPESVEAGAVFAEIGPRMAELSGSRLAAQQQMEGLLAPHRPKEPAWFLATVGVSPDHQGKGLGSAVVLPGVEAAERAGVPAFLETSAPRNLPFYERLGFTVTADVEVPEGPRTWCMTRKPGA
B2: 22211 (protein)
chain: MALPVTALLLPLALLLHAARPDIQMTQSPSSLSASVGDRVTITCKASDHINNWLAWYQQKPGQAPKLLIYGATTLETGVPSRFSGSGSGTDYTLTISSLQPEDFATYYCQQSWNTPWTFGQGTKLEIKRLEDLKNVFPPEVAVFEPSEAEISHTQKATLVCLATGFYPDHVELSWWVNGKEVHSGVCTDPQPLKEQPALNDSRYCLSSRLRVSATFWQNPRNHFRCQVQFYGLSENDEWTQDRAKPVTQIVSAEAWGRADCGFTSESYQQGVLSATILYEILLGKATLYAVLVSALVLMAMVKRKDSRGRAKRSGSGATNFSLLKQAGDVEENPGPTSATMDWIWRILFLVGAATGAHSGPQLGPYELWELSHGSGGGGSGGGGSGGGGSFEQVQLQQPGAELVKPGASVKMSCKASGYAFSSYWINWMKQKPGQGLEWIGQIYPGDGDTNYNGKFKGRATLTADTSSSTAYMQLSSLTSEDSAVYFCARSITTVVGCAMDYWGQGTSVTVSSTRIQNPDPAVYQLRDSKSSDKSVCLFTDFDSQTNVSQSKDSDVYITDKCVLDMRSMDFKSNSAVAWSNKSDFACANAFNNSIIPEDTFFPSPESSCDVKLVEKSFETDTNLNFQNLSVIGFRILLLKVAGFNLLMTLRLWSSRAKRSGSGVKQTLNFDLLKLAGDVESNPGPSRGHMTEYKPTVRLATRDDVPRAVRTLAAAFADYPATRHTVDPDRHIERVTELQELFLTRVGLDIGKVWVADDGAAVAVWTTPESVEAGAVFAEIGPRMAELSGSRLAAQQQMEGLLAPHRPKEPAWFLATVGVSPDHQGKGLGSAVVLPGVEAAERAGVPAFLETSAPRNLPFYERLGFTVTADVEVPEGPRTWCMTRKPGA
B3: 22247 (protein)
chain: MALPVTALLLPLALLLHAARPACPQLGPYELWELSHGTGAVVRGAEFDIQMTQSPSSLSASVGDRVTITCKASDHINNWLAWYQQKPGQAPKLLIYGATTLETGVPSRFSGSGSGTDYTLTISSLQPEDFATYYCQQSWNTPWTFGQGTKLEIKRLEDLKNVFPPEVAVFEPSKAEIAHTQKATLVCLATGFYPDHVELSWWVNGKEVHSGVCTDPQPLKEQPALNDSRYCLSSRLRVSATFWQNPRNHFRCQVQFYGLSENDEWTQDRAKPVTQIVSAEAWGRADCGITSASYHQGVLSATILYEILLGKATLYAVLVSALVLMAMVKRKDSRGRAKRSGSGATNFSLLKQAGDVEENPGPTSATMDWIWRILFLVGAATGAHSGPQVQLQESGGGLAQAGGSLRLSCAASGRTFSMGWFRQAPGKEREFVAAITYSGGSPYYASSVRGRFTISRDNAKNTVYLQMNSLKPEDTAVYYCAANPTYGSDWNAENWGQGTQVTVSSGSGGGGSGGGGSGGGGSFEQVQLQQPGAELVKPGASVKMSCKASGYAFSSYWINWMKQKPGQGLEWIGQIYPGDGDTNYNGKFKGRATLTADTSSSTAYMQLSSLTSEDSAVYFCARSITTVVGCAMDYWGQGTSVTVSSTRIQNPDPAVYQLRDSKSSDKSVCLFTDFDSQTNVSQSKDSDVYITDKCVLDMRSMDFKSNSAVAWSNKSDFACANAFNNSIIPEDTFFPSSDVPCDVKLVEKSFETDTNLNFQNLSVIGFRILLLKVAGFNLLMTLRLWSSRAKRSGSGVKQTLNFDLLKLAGDVESNPGPSRGHMTEYKPTVRLATRDDVPRAVRTLAAAFADYPATRHTVDPDRHIERVTELQELFLTRVGLDIGKVWVADDGAAVAVWTTPESVEAGAVFAEIGPRMAELSGSRLAAQQQMEGLLAPHRPKEPAWFLATVGVSPDHQGKGLGSAVVLPGVEAAERAGVPAFLETSAPRNLPFYERLGFTVTADVEVPEGPRTWCMTRKPGA
B4: 22243 (protein)
chain: MALPVTALLLPLALLLHAARPACQDKLTQWPKWLEGTGGGGSGGGGSGGGGSEFDIQMTQSPSSLSASVGDRVTITCKASDHINNWLAWYQQKPGQAPKLLIYGATTLETGVPSRFSGSGSGTDYTLTISSLQPEDFATYYCQQSWNTPWTFGQGTKLEIKRLEDLKNVFPPEVAVFEPSKAEIAHTQKATLVCLATGFYPDHVELSWWVNGKEVHSGVCTDPQPLKEQPALNDSRYCLSSRLRVSATFWQNPRNHFRCQVQFYGLSENDEWTQDRAKPVTQIVSAEAWGRADCGITSASYHQGVLSATILYEILLGKATLYAVLVSALVLMAMVKRKDSRGRAKRSGSGATNFSLLKQAGDVEENPGPTSATMDWIWRILFLVGAATGAHSGPQVQLQESGGGLAQAGGSLRLSCAASGRTFSMGWFRQAPGKEREFVAAITYSGGSPYYASSVRGRFTISRDNAKNTVYLQMNSLKPEDTAVYYCAANPTYGSDWNAENWGQGTQVTVSSGSGGGGSGGGGSGGGGSFEQVQLQQPGAELVKPGASVKMSCKASGYAFSSYWINWMKQKPGQGLEWIGQIYPGDGDTNYNGKFKGRATLTADTSSSTAYMQLSSLTSEDSAVYFCARSITTVVGCAMDYWGQGTSVTVSSTRIQNPDPAVYQLRDSKSSDKSVCLFTDFDSQTNVSQSKDSDVYITDKCVLDMRSMDFKSNSAVAWSNKSDFACANAFNNSIIPEDTFFPSSDVPCDVKLVEKSFETDTNLNFQNLSVIGFRILLLKVAGFNLLMTLRLWSSRAKRSGSGVKQTLNFDLLKLAGDVESNPGPSRGHMTEYKPTVRLATRDDVPRAVRTLAAAFADYPATRHTVDPDRHIERVTELQELFLTRVGLDIGKVWVADDGAAVAVWTTPESVEAGAVFAEIGPRMAELSGSRLAAQQQMEGLLAPHRPKEPAWFLATVGVSPDHQGKGLGSAVVLPGVEAAERAGVPAFLETSAPRNLPFYERLGFTVTADVEVPEGPRTWCMTRKPGA
B5: 22248 (protein)
chain: MALPVTALLLPLALLLHAARPDIQMTQSPSSLSASVGDRVTITCKASDHINNWLAWYQQKPGQAPKLLIYGATTLETGVPSRFSGSGSGTDYTLTISSLQPEDFATYYCQQSWNTPWTFGQGTKLEIKRLEDLKNVFPPEVAVFEPSEAEISHTQKATLVCLATGFYPDHVELSWWVNGKEVHSGVCTDPQPLKEQPALNDSRYCLSSRLRVSATFWQNPRNHFRCQVQFYGLSENDEWTQDRAKPVTQIVSAEAWGRADCGFTSESYQQGVLSATILYEILLGKATLYAVLVSALVLMAMVKRKDSRGRAKRSGSGATNFSLLKQAGDVEENPGPTSATMDWIWRILFLVGAATGAHSGPQLGPYELWELSHGSGPLGIAGIFEQVQLQQPGAELVKPGASVKMSCKASGYAFSSYWINWMKQKPGQGLEWIGQIYPGDGDTNYNGKFKGRATLTADTSSSTAYMQLSSLTSEDSAVYFCARSITTVVGCAMDYWGQGTSVTVSSTRIQNPDPAVYQLRDSKSSDKSVCLFTDFDSQTNVSQSKDSDVYITDKCVLDMRSMDFKSNSAVAWSNKSDFACANAFNNSIIPEDTFFPSPESSCDVKLVEKSFETDTNLNFQNLSVIGFRILLLKVAGFNLLMTLRLWSSRAKRSGSGVKQTLNFDLLKLAGDVESNPGPSRGHMTEYKPTVRLATRDDVPRAVRTLAAAFADYPATRHTVDPDRHIERVTELQELFLTRVGLDIGKVWVADDGAAVAVWTTPESVEAGAVFAEIGPRMAELSGSRLAAQQQMEGLLAPHRPKEPAWFLATVGVSPDHQGKGLGSAVVLPGVEAAERAGVPAFLETSAPRNLPFYERLGFTVTADVEVPEGPRTWCMTRKPGA
B6: 22214 (protein)
chain: MALPVTALLLPLALLLHAARPACPYINIYNAEPANPSEKNSPTQYAYGTGPQGIFGQPGYINEFDIQMTQSPSSLSASVGDRVTITCKASDHINNWLAWYQQKPGQAPKLLIYGATTLETGVPSRFSGSGSGTDYTLTISSLQPEDFATYYCQQSWNTPWTFGQGTKLEIKRLEDLKNVFPPEVAVFEPSKAEIAHTQKATLVCLATGFYPDHVELSWWVNGKEVHSGVCTDPQPLKEQPALNDSRYCLSSRLRVSATFWQNPRNHFRCQVQFYGLSENDEWTQDRAKPVTQIVSAEAWGRADCGITSASYHQGVLSATILYEILLGKATLYAVLVSALVLMAMVKRKDSRGRAKRSGSGATNFSLLKQAGDVEENPGPTSATMDWIWRILFLVGAATGAHSGPQVQLQESGGGLAQAGGSLRLSCAASGRTFSMGWFRQAPGKEREFVAAITYSGGSPYYASSVRGRFTISRDNAKNTVYLQMNSLKPEDTAVYYCAANPTYGSDWNAENWGQGTQVTVSSGSGGGGSGGGGSGGGGSFEQVQLQQPGAELVKPGASVKMSCKASGYAFSSYWINWMKQKPGQGLEWIGQIYPGDGDTNYNGKFKGRATLTADTSSSTAYMQLSSLTSEDSAVYFCARSITTVVGCAMDYWGQGTSVTVSSTRIQNPDPAVYQLRDSKSSDKSVCLFTDFDSQTNVSQSKDSDVYITDKCVLDMRSMDFKSNSAVAWSNKSDFACANAFNNSIIPEDTFFPSSDVPCDVKLVEKSFETDTNLNFQNLSVIGFRILLLKVAGFNLLMTLRLWSSRAKRSGSGVKQTLNFDLLKLAGDVESNPGPSRGHMTEYKPTVRLATRDDVPRAVRTLAAAFADYPATRHTVDPDRHIERVTELQELFLTRVGLDIGKVWVADDGAAVAVWTTPESVEAGAVFAEIGPRMAELSGSRLAAQQQMEGLLAPHRPKEPAWFLATVGVSPDHQGKGLGSAVVLPGVEAAERAGVPAFLETSAPRNLPFYERLGFTVTADVEVPEGPRTWCMTRKPGA

Tested on: RAJI cells
Test: JNG assay, co-culture with RAJI cells
Assay type: cell-based
Conditions: JNG cells expressing construct, co-culture with Raji
Procedure, shortened: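 Jurkat NFAT-GFP (JNG) cells stably transduced with SARs by lentivirus, with drug selection where the construct carried a resistance gene, then co-cultured with target cells at E:T ~1:2 for ~4–18 h. % GFP-positive cells measured by FACS against parental JNG; +/- to 5+ correspond to ~5–50% GFP-positive.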

Question: For B1, which “NFAT-GFP ASSAY: Raji” value is on record?
Answer: Raji (+/-) (refer to approximately 5%, 10%, 20%, 30%, 40% and 50% GFP positive cells)

Question: For B2, which “NFAT-GFP ASSAY: Raji” value is on record?
Answer: 2+ (refer to approximately 5%, 10%, 20%, 30%, 40% and 50% GFP positive cells)

Question: B3 was tested. Which “NFAT-GFP ASSAY: Raji” value did it give?
Answer: Raji (2+) (refer to approximately 5%, 10%, 20%, 30%, 40% and 50% GFP positive cells)

Question: B4 was tested. Which “NFAT-GFP ASSAY: Raji” value did it give?
Answer: Raji (3+) (refer to approximately 5%, 10%, 20%, 30%, 40% and 50% GFP positive cells)

Question: How did the “NFAT-GFP ASSAY: Raji” value turn out when B5 was run?
Answer: Raji (3+) (refer to approximately 5%, 10%, 20%, 30%, 40% and 50% GFP positive cells)

Question: For B6, which “NFAT-GFP ASSAY: Raji” value is on record?
Answer: Raji (+) (refer to approximately 5%, 10%, 20%, 30%, 40% and 50% GFP positive cells)
